Assay results: patent US20110160439A1 (H LUNDBECK A S, published 2011)
Residue numbers refer to the chain shown, from its start. Where no end group is shown, it is not given here.

T1: sSortilin S316E mutant (human, UniProt Q99523 78-755)
T1 sequence: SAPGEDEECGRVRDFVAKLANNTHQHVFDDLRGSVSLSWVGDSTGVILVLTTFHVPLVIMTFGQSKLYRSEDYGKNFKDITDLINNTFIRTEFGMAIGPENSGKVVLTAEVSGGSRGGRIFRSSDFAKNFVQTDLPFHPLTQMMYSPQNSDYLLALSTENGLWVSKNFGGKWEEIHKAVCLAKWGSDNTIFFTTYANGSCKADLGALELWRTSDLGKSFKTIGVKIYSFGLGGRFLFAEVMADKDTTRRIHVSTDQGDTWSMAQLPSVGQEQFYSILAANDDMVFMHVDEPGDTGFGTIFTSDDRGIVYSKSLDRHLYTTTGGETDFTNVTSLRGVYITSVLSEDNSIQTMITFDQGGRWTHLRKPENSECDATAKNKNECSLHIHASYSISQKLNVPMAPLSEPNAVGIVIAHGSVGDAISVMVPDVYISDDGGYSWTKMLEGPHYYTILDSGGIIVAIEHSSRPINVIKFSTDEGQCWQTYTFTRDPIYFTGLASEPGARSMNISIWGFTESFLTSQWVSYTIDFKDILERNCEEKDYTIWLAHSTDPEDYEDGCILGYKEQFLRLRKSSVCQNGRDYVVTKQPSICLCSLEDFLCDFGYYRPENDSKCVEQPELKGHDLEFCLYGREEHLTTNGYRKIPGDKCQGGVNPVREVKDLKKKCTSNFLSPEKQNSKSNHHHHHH

T2: Soluble Sortilin (sSortilin), luminal domain of human Sortilin fused C-terminally to His6 (human, UniProt Q99523 78-755)
T2 construct: Expressed in CHO-K1 cells; The propeptide is removed in the mature receptor; also called wt sSortilin; wtSortilin
T2 sequence: T1 sequence with E239S

B1: GST-tagged Sortilin propeptide (other)
chain: QDRLDAPPPPAAPLPRWSGPIGVSWGLRAAAAGGAFPRGGRWRR
modifications: also: GST tag, order and linker not given here
notes: also called GST-Sort-pro; (GST)Sort-pro; not shown: glutathione S-transferase (GST) tag
B2: Propeptide of Nerve Growth Factor (NGFpro), E. coli-expressed, His6 tag removed by TEV (ligand)
chain: EPHSESNVPAGHTIPQVHWTKLQHSLDTALRRARSAPAAAIAARVAGQTRNITVDPRLFKKRRLRSPRVLFSTQPPREAADTQDLDFEVGGAAPFNRTHRSKR
notes: also called pro-domain of Nerve Growth Factor; NGF prodomain
B3: Mature BDNF (ligand)
chain: HSDPARRGELSVCDSISEWVTAADKKTAVDMSGGTVTVLEKVPVSKGQLKQYFYETKCNPMGYTKEGCRGIDKRHWNSQCRTTQSYVRALTMDSKKRIGWRFIRIDTSCVCTLTIKRGR

Tests used:
sSortilin S316E mutant = molecular target: T1, sSortilin S316E mutant; test: SPR, mutant sSortilin immobilised
Experimental: (§1) The receptors were immobilized at similar concentrations (0.06 pM/mm²) and binding was analyzed by SPR.
(§2) Surface plasmon resonance (SPR) measurements were performed on a BIAcore 2000 instrument (Biacore Sweden) equipped with CM5 sensor chips maintained at 20° C. A continuous flow of HBS buffer (10 mM HEPES pH 7.4, 3.4 mM EDTA, 150 mM NaCl, 0.005% surfactant P20) passing over the sensor surface was maintained at 5 μl/min. The carboxylated dextran matrix of the sensor chip flow cells 1-3 was activated by the injection of a solution containing 0.2 M N-ethyl-N-(3 dimethylamino-propyl)carbodiimide and 0.05MN-hydroxysuccimide in water. A sortilin solution (320 μl, 5 μg/ml in 10 mM sodium acetate pH 4.0) was then injected over flow cells 1 and 2 at a flow rate of 15 μl/min. Remaining binding sites in all three flow cells were blocked by injection (5 μl/min) of 70 μl of 1 M ethanolamine pH 8.5. […] Screening of the samples was performed by injecting aliquots of 50 μl, at concentrations of 0.1-8 μM, through all flow cells with a flow rate of 5 μl/min. Unless otherwise stated, the samples were dissolved in 10 mM HEPES pH 7.4, 150 mM NaCl, 1.5 mM CaCl2, 1 mM EGTA, 0.005% surfactant P20. Sample buffer was also used as running buffer. […]

[1] = molecular target: T2, Soluble Sortilin (sSortilin), luminal …; test: SPR (BIAcore 3000), sSortilin immobilised on CM5 chip
Experimental: All measurements were performed on a BIAcore 3000 instrument (Biacore Sweden) maintained at 20° C. A continuous flow of buffer F (10 mM HEPES pH=7.4, 150 mM (NH₄)₂SO₄, 1.5 mM CaCl₂, 1.5 mM EGTA and 0.005% Tween-20) was passed over the CM5 chip sensor surface at 5 μl/min.

[2] = molecular target: T2, Soluble Sortilin (sSortilin), luminal …; test: SPR, wt sSortilin immobilised
Experimental: as §1, §2

Row | Binder | binding result (sSortilin S316E mutant) | Kd [1] | binding result [2]
1 | B1 | no binding |  | 
2 | B2 |  | ~10 nM | 
3 | B3 | binds |  | binds
